In experiment [1] the target is T1, human CD3E&G-His/Free (human, UniProt P07766 23-126; P09693 23-116).
T1 construct: Bought recombinant heterodimer; 'His/Free' as printed (one chain His-tagged); also called human CD3 E&G heterodimer
The experiment can be described thus: BLI (Octet), 1:1 fit.

Experiment [2] concerns the target T2, cyno CD3E&G-His/Free (cynomolgus monkey, UniProt Q95LI5 22-117; Q95LI7 23-113).
T2 construct: Bought recombinant heterodimer; also called monkey CD3 E&G
T2 sequence (looked up) 1: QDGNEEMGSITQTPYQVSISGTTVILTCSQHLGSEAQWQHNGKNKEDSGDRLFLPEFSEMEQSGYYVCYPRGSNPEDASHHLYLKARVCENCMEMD
T2 sequence (looked up) 2: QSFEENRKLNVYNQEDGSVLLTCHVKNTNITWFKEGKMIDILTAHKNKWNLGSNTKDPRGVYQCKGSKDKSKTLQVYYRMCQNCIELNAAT
The experiment can be described thus: BLI (Octet), 1:1 fit.

Experiment [3] addresses T3, Cyno BCMA-His (cynomolgus monkey, UniProt A0A2K5UD97 1-53).
T3 construct: also called Cyno BCMA (ACRO BCA-C52H7); monkey BCMA
The experiment can be described thus: BLI (Octet), 1:1 fit.

For experiment [4], the target named is T4, human BCMA (full-length, on cells) (human, UniProt Q02223 1-184).
T4 sequence: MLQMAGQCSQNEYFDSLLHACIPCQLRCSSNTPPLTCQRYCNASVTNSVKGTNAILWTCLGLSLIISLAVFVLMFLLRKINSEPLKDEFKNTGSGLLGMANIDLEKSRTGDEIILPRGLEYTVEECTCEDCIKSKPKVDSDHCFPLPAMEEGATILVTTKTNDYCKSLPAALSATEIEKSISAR
Description: cell-based or functional assay.

The target in experiment [5] is T5, human CD3 (on Jurkat cells and human T cells) (human, UniProt P07766 23-207).
T5 construct: whole, on cells; the other chains of the complex on the cells are not described; also called CD3E
Description: flow cytometry, human CD4 T cells. A general note: In flow cytometry, cells or beads pass a laser one at a time.

Experiment [6] has as its target T5, human CD3 (on Jurkat cells and human T …). Description: flow cytometry, human CD8 T cells.
For experiment [7] the target is unchanged. The experiment can be described thus: flow cytometry, Jurkat cells.
Experiment [8] deals with T6, cynomolgus monkey BCMA (full-length, on cells) (cynomolgus monkey, UniProt A0A2K5UD97 1-183).
T6 construct: whole, on cells; also called cynoBCMA; GS-CHO-cynoBCMA
Description: flow cytometry, GS-CHO-cynoBCMA cells.

The target of experiment [9] is T4, human BCMA (full-length, on cells). The experiment can be described thus: flow cytometry, GS-CHO-hBCMA cells.
Experiment [10] shares this target. Description: cell-based or functional assay. The source holds these as a separate data set.
The target is the same in experiment [11]. The experiment can be described thus: flow cytometry, GS-CHO-hBCMA cells. The source holds these as a separate data set.
Experiment [12] shares this target. The experiment can be described thus: cell-based or functional assay. This is another data set of the same source.

Read-outs that look alike come from different tables or passages of the source.

T6 sequence (A0A2K5UD97 entry or part of it): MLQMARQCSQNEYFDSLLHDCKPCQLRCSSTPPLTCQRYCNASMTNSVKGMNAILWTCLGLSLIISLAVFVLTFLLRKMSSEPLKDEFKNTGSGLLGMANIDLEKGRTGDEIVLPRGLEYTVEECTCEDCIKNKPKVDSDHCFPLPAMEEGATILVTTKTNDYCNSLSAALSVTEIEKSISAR
T3 sequence (A0A2K5UD97 entry or part of it): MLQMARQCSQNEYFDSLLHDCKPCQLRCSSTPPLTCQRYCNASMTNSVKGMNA
T1 sequence (P07766 23-126, chain 1 of 2): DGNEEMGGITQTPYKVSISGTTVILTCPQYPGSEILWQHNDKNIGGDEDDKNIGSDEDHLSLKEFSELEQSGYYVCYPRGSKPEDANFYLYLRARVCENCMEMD
T1 sequence (P09693 23-116, chain 2 of 2): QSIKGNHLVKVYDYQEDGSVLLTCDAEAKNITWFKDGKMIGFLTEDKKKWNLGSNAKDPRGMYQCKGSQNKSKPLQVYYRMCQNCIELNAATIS
T5 sequence (P07766 23-207): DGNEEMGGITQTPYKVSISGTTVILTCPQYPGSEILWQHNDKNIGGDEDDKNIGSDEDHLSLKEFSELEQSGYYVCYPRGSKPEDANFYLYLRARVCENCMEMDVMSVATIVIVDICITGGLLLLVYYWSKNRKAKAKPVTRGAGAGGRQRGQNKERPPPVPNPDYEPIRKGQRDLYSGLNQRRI

B1: B3-7F5.3 (87) (7F5.3_sp34.87_497_triFab) (trispecific antibody, human IgG1, kappa, lambda, L234A L235A)
heavy 1: not shown
light 1: not shown
heavy 2: not shown
light 2: DIQMTQSPSSLSASVGDRVTITCRASQSISRYLNWYQDKPGKAPKLLIYAASSLQSGVPSRFSGSGSGTDFTLTISSLQPEDFATYYCQQKYFDITFGGGTKVEIKRTVAAPSVFIFPPSDECLKSGTASVVCLLNNFYPREAKVQWKVDNALQSGNSQESVTEQDSKDSTYSLSSTLTLSKADYEKHKVYACEVTHQGLSSPVTKSFNRGES
light 3: QAVVTQEPSLTVSPGGTVTLTCRSSTGAVTTSNYANWVQKKPGQAPRGLIGGTNKRAPGVPARFSGSLLGDKAALTLLGAQPEDEAEYYCALWYSNLWVFGQGTKLTVLGQPKAAPSVTLFPPSSEELQANKATLVCLISDFYPGAVTVAWKADSSPVKAGVETTTPSKQSNNKYAASSYLSLTPEQWKSHRSYSCQVTHEGSTVEKTVAPTECS
notes: also called Exemplary antibody No. 5
A word on the Kd: it is the equilibrium constant for the complex coming apart. As usually defined, the koff is the first-order rate constant of dissociation. What is called kon is the second-order rate constant of association. In [1], B1 had a dissociation constant Kd of 64.1 nM, a koff of 0.0152 s⁻¹ and a kon of 236000 M⁻¹ s⁻¹. Moreover, in experiment [2], binding was characterised by a dissociation constant (Kd) of 58.6 nM, the koff turned out to be 0.012 s⁻¹ and the kon amounted to 205000 M⁻¹ s⁻¹. In experiment [3], the affinity, expressed as Kd, was 0.244 nM; the dissociation rate constant (koff) came to 0.0002 s⁻¹; the kon was 821000 M⁻¹ s⁻¹. Besides, in [4], the “EC50 of PBMC killing of H929 ko GPRC5D cells, donor1” value (“EC50 of PBMC killing … donor1” for short) was determined as 0.167 nM.

B2: JNJ-BCMA/CD3 (Teclistamab) (bispecific antibody, human IgG4 S228P, lambda, F234A L235A)
heavy 1: not shown
light 1: SYVLTQPPSVSVAPGQTARITCGGNNIGSKSVHWYQQPPGQAPVVVVYDDSDRPSGIPERFSGSNSGNTATLTISRVEAGDEAVYYCQVWDSSSDHVVFGGGTKLTVLGQPKAAPSVTLFPPSSEELQANKATLVCLISDFYPGAVTVAWKGDSSPVKAGVETTTPSKQSNNKYAASSYLSLTPEQWKSHRSYSCQVTHEGSTVEKTVAPTECS
heavy 2: EVQLVESGGGLVQPGGSLRLSCAASGFTFNTYAMNWVRQAPGKGLEWVARIRSKYNNYATYYAASVKGRFTISRDDSKNSLYLQMNSLKTEDTAVYYCARHGNFGNSYVSWFAYWGQGTLVTVSSASTKGPSVFPLAPCSRSTSESTAALGCLVKDYFPEPVTVSWNSGALTSGVHTFPAVLQSSGLYSLSSVVTVPSSSLGTKTYTCNVDHKPSNTKVDKRVESKYGPPCPPCPAPEAAGGPSVFLFPPKPKDTLMISRTPEVTCVVVDVSQEDPEVQFNWYVDGVEVHNAKTKPREEQFNSTYRVVSVLTVLHQDWLNGKEYKCKVSNKGLPSSIEKTISKAKGQPREPQVYTLPPSQEEMTKNQVSLTCLVKGFYPSDIAVEWESNGQPENNYKTTPPVLDSDGSFLLYSKLTVDKSRWQEGNVFSCSVMHEALHNHYTQKSLSLSLGK
light 2: QTVVTQEPSLTVSPGGTVTLTCRSSTGAVTTSNYANWVQQKPGQAPRGLIGGTNKRAPGTPARFSGSLLGGKAALTLSGVQPEDEAEYYCALWYSNLWVFGGGTKLTVLGQPKAAPSVTLFPPSSEELQANKATLVCLISDFYPGAVTVAWKADSSPVKAGVETTTPSKQSNNKYAASSYLSLTPEQWKSHRSYSCQVTHEGSTVEKTVAPTECS
notes: also called J&J BCMAxCD3
As a reminder, the EC50 is the concentration at which the effect is half-maximal. As for B2, the results for the dissociation constant (Kd) in experiment [1], in experiment [2] and in [3] were 15.4 nM, 12.1 nM and 17.5 nM, respectively. The koff was found to be 0.0057 s⁻¹ in experiment [1], 0.00481 s⁻¹ in experiment [2] and 0.0338 s⁻¹ in experiment [3]. Also, the on-rate constant (kon) stood at 370000 M⁻¹ s⁻¹ in [1], 396000 M⁻¹ s⁻¹ in experiment [2] and 1.94e+06 M⁻¹ s⁻¹ in experiment [3]. Further, the EC50 worked out at 25.9 nM in [5], 24.6 nM in experiment [6], 6.39 nM in experiment [7] and 829 nM in [8].

B3: B3-7F5.3 (24) (7F5.3_sp34.24_497_triFab) (trispecific antibody, human IgG1, kappa, lambda, L234A L235A)
heavy 1: not shown
light 1: not shown
heavy 2: not shown
light 2: DIQMTQSPSSLSASVGDRVTITCRASQSISRYLNWYQDKPGKAPKLLIYAASSLQSGVPSRFSGSGSGTDFTLTISSLQPEDFATYYCQQKYFDITFGGGTKVEIKRTVAAPSVFIFPPSDECLKSGTASVVCLLNNFYPREAKVQWKVDNALQSGNSQESVTEQDSKDSTYSLSSTLTLSKADYEKHKVYACEVTHQGLSSPVTKSFNRGES
light 3: QAVVTQEPSLTVSPGGTVTLTCRSSTGAVTTSNYANWVQKKPGQAPRGLIGGTNKRAPGVPARFSGSLLGDKAALTLLGAQPEDEAEYYCALWYSNLWVFGQGTKLTVLGQPKAAPSVTLFPPSSEELQANKATLVCLISDFYPGAVTVAWKADSSPVKAGVETTTPSKQSNNKYAASSYLSLTPEQWKSHRSYSCQVTHEGSTVEKTVAPTECS
notes: also called Exemplary antibody No. 6
In the case of B3, the results for the Kd in [1] and in [2] were 14.4 nM and 10.2 nM, respectively. For the same molecule, the off-rate constant (koff) was determined as 0.00874 s⁻¹ in experiment [1] and 0.00675 s⁻¹ in experiment [2]. For the same molecule, the on-rate (kon) came out at 608000 M⁻¹ s⁻¹ in [1] and 662000 M⁻¹ s⁻¹ in experiment [2]. Besides, the EC50 was determined as 43.4 nM in experiment [5], 42.4 nM in experiment [6], 7.36 nM in [9] and 9.69 nM in [8]. Further, the “EC50 of PBMC killing of H929 ko GPRC5D cells (LDH)” value (“EC50 of PBMC killing … (LDH)” below) in experiment [10] came out at 0.0751 nM.

B4: Roche-BCMA/CD3 (Alnuctamab) (bispecific antibody, human IgG1, kappa, L234A L235A)
chain: EVQLLESGGGLVQPGGSLRLSCAASGFTFSTYAMNWVRQAPGKGLEWVSRIRSKYNNYATYYADSVKGRFTISRDDSKNTLYLQMNSLRAEDTAVYYCVRHGNFGNSYVSWFAYWGQGTLVTVSSASVAAPSVFIFPPSDEQLKSGTASVVCLLNNFYPREAKVQWKVDNALQSGNSQESVTEQDSKDSTYSLSSTLTLSKADYEKHKVYACEVTHQGLSSPVTKSFNRGEC
heavy 1: not shown
light: EIVLTQSPGTLSLSPGERATLSCRASQSVSDEYLSWYQQKPGQAPRLLIHSASTRATGIPDRFSGSGSGTDFTLAISRLEPEDFAVYYCQQYGYPPDFTFGQGTKVEIKRTVAAPSVFIFPPSDRKLKSGTASVVCLLNNFYPREAKVQWKVDNALQSGNSQESVTEQDSKDSTYSLSSTLTLSKADYEKHKVYACEVTHQGLSSPVTKSFNRGEC
heavy 2: EVQLLESGGGLVQPGGSLRLSCAASGFTFSDNAMGWVRQAPGKGLEWVSAISGPGSSTYYADSVKGRFTISRDNSKNTLYLQMNSLRAEDTAVYYCAKVLGWFDYWGQGTLVTVSSASTKGPSVFPLAPSSKSTSGGTAALGCLVEDYFPEPVTVSWNSGALTSGVHTFPAVLQSSGLYSLSSVVTVPSSSLGTQTYICNVNHKPSNTKVDEKVEPKSCDKTHTCPPCPAPEAAGGPSVFLFPPKPKDTLMISRTPEVTCVVVDVSHEDPEVKFNWYVDGVEVHNAKTKPREEQYNSTYRVVSVLTVLHQDWLNGKEYKCKVSNKALGAPIEKTISKAKGQPREPQVCTLPPSRDELTKNQVSLSCAVKGFYPSDIAVEWESNGQPENNYKTTPPVLDSDGSFFLVSKLTVDKSRWQQGNVFSCSVMHEALHNHYTQKSLSLSPGK
notes: also called Roche-BCMAxCD3
In the case of B4, in [1], the Kd came out at 13 nM, the koff came to 0.00469 s⁻¹ and the kon worked out at 361000 M⁻¹ s⁻¹. In experiment [3], the Kd stood at 0.89 nM, the koff amounted to 0.00125 s⁻¹ and the on-rate (kon) came to 1.4e+06 M⁻¹ s⁻¹. This molecule also had a half-maximal effective concentration (EC50) in experiment [9] of 3.08 nM. In addition, in [8], the midpoint of the response, the EC50, lay at 3.81 nM. Besides, the “EC50 of PBMC killing … donor1” value in [4] is 0.0045 nM. Also, the “EC50 of PBMC killing … (LDH)” value in experiment [10] stood at 0.0161 nM.

B5: REGN-BCMA/CD3 (REGN5458) (bispecific antibody)
VH: EVQLVESGGGLVQPGGSLRLSCAASGFTFSNFWMTWVRQAPGKGLEWVANMNQDGSEKYYVDSVKGRFTISRDNAKSSLYLQMNSLRAEDTAVYYCARDREYCISTSCYDDFDYWGQGTLVTVSS
VL: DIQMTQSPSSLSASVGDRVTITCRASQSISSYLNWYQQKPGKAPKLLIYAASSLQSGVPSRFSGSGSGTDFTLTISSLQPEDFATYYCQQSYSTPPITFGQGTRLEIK
chain: EVQLVESGGGLVQPGRSLRLSCAASGFTFDDYSMHWVRQAPGKGLEWVSGISWNSGSKGYADSVKGRFTISRDNAKNSLYLQMNSLRAEDTALYYCAKYGSGYGKFYHYGLDVWGQGTTVTVSS
For the molecule B5, the binding result in experiment [1] and in [2] was “no binding (tested: 100 nM)” throughout. The molecule further returned a Kd in experiment [3] of 14 nM. In experiment [3], the dissociation rate constant (koff) turned out to be 0.0108 s⁻¹. In experiment [3], this molecule registered a kon of 767000 M⁻¹ s⁻¹. For the same molecule, the EC50 in experiment [5] came out at 33.4 nM; in experiment [6] it was 31.9 nM; in experiment [9] it was 59.2 nM; in [11] it was 76.1 nM; in experiment [7], 12 nM; in experiment [8], 1320 nM. Also, the “EC50 of PBMC killing … donor1” value in experiment [4] worked out at 0.0395 nM. For the same molecule, in experiment [12], the “EC50 of PBMC killing … (LDH)” value came to 0.0375 nM.

Source of the values: EP4725970A1 (Fortvita Biologics Inc., dated 2026).
